Data on 91 sequences can be found in the supplement of paper PMC9112550, “Optimization of the antimicrobial peptide Bac7 by deep mutational scanning” (BMC Biology, 2022).
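Also: peptides expressed intracellularly from a pBAD plasmid library in pooled LB shake-flask culture, induced with 0.3% L-arabinose, DNA abundance read by NGS, three biological replicates, DESeq2 with apeglm shrinkage.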

The subject of this data set is Escherichia coli TOP10. Kind of data set: shrunken log2 fold change of peptide-encoding DNA abundance (4.5 h post-induction vs induction); higher = less antimicrobial activity (less host growth inhibition). The note with it: time post-induction: 4.5 h; library: site-saturation at positions 5, 18, 19, 20.
Turning to RRIRFRPPRLPRPRPRPQKWPRP, the “shrunken log2 fold change” value was -0.0281.

Regarding RRIRHRPPRLPRPRPRPGMYPRP, the “shrunken log2 fold change” value is -0.298.

For the sequence RRIRQRPPRLPRPRPRPWGPPRP, the “shrunken log2 fold change” value came out at 0.0893. In the case of RRIRHRPPRLPRPRPRPKQKPRP it was -0.00654; in that of RRIRIRPPRLPRPRPRPPFYPRP, -0.438.

For RRIRYRPPRLPRPRPRPFHVPRP, the “shrunken log2 fold change” value is -0.184. In the case of RRIRSRPPRLPRPRPRPLYIPRP it was -0.276.

RRIRSRPPRLPRPRPRPSICPRP: the “shrunken log2 fold change” value was -0.0672.

On to RRIRDRPPRLPRPRPRPVTKPRP, for which the “shrunken log2 fold change” value was -0.173. In the case of RRIRARPPRLPRPRPRPVCYPRP it was -0.128; in that of RRIRIRPPRLPRPRPRPIFEPRP, -0.0533.

Consider RRIRQRPPRLPRPRPRPNHDPRP, for which the “shrunken log2 fold change” value was -0.509. Regarding RRIRFRPPRLPRPRPRPFHFPRP, the “shrunken log2 fold change” value was -0.532. Next, RRIRVRPPRLPRPRPRPCLCPRP: -0.491; RRIRKRPPRLPRPRPRPENLPRP: 3.46; RRIRHRPPRLPRPRPRPNSDPRP: -0.0908.

RRIRGRPPRLPRPRPRPMYDPRP: the “shrunken log2 fold change” value was determined as 0.233. Next, RRIRMRPPRLPRPRPRPGGMPRP: 0.789. Next, RRIRSRPPRLPRPRPRPIHCPRP: -0.452; RRIRQRPPRLPRPRPRPKGMPRP: 0.0157; RRIRNRPPRLPRPRPRPPKWPRP: 0.411. Next, RRIRDRPPRLPRPRPRPLMGPRP: 0.0162; RRIRKRPPRLPRPRPRPHCLPRP: -0.0309; RRIRVRPPRLPRPRPRPHERPRP: -0.13. Consider RRIRFRPPRLPRPRPRPRREPRP, for which the “shrunken log2 fold change” value was 0.177. With RRIRPRPPRLPRPRPRPCGFPRP, the “shrunken log2 fold change” value stood at 0.183.

Take RRIRKRPPRLPRPRPRPSEIPRP: the “shrunken log2 fold change” value turned out to be 0.157. Regarding RRIRMRPPRLPRPRPRPLYMPRP, the “shrunken log2 fold change” value is -0.222.

In the case of RRIRYRPPRLPRPRPRPQGCPRP, the “shrunken log2 fold change” value was -0.557.

Turning to RRIRCRPPRLPRPRPRPNLWPRP, the “shrunken log2 fold change” value turned out to be 0.00489. In the case of RRIRCRPPRLPRPRPRPFSWPRP it was -0.141; in that of RRIRWRPPRLPRPRPRPPAWPRP, 0.794; in that of RRIRRRPPRLPRPRPRPLESPRP, 0.0173. Next, RRIRMRPPRLPRPRPRPDMRPRP: 0.0245. Take RRIRERPPRLPRPRPRPHSYPRP: the “shrunken log2 fold change” value was -0.0459.

Consider RRIRCRPPRLPRPRPRPCRPPRP, for which the “shrunken log2 fold change” value is -0.0339. In the case of RRIRLRPPRLPRPRPRPIPWPRP it was 0.0447; in that of RRIRRRPPRLPRPRPRPSPYPRP, 0.0987; in that of RRIRQRPPRLPRPRPRPGTTPRP, 0.155. In the case of RRIRFRPPRLPRPRPRPRELPRP it was 0.263; in that of RRIRSRPPRLPRPRPRPVCFPRP, 0.156. As to RRIRVRPPRLPRPRPRPKPPPRP, the “shrunken log2 fold change” value came out at 0.318. Next, RRIRCRPPRLPRPRPRPCCRPRP: -0.106; RRIRNRPPRLPRPRPRPDWKPRP: -0.11; RRIRIRPPRLPRPRPRPTEGPRP: 0.00534. Regarding RRIRLRPPRLPRPRPRPPPAPRP, the “shrunken log2 fold change” value stood at 1.52. As for RRIRHRPPRLPRPRPRPYSMPRP, the “shrunken log2 fold change” value was -0.878. In the case of RRIRLRPPRLPRPRPRPTYNPRP it was -0.869; in that of RRIRRRPPRLPRPRPRPRFEPRP, 0.582; in that of RRIRDRPPRLPRPRPRPELKPRP, -0.00616. For RRIRSRPPRLPRPRPRPTDLPRP, the “shrunken log2 fold change” value is -0.464.

In the case of RRIRARPPRLPRPRPRPYWMPRP, the “shrunken log2 fold change” value is -0.275. In the case of RRIRYRPPRLPRPRPRPAKAPRP it was 0.0797.

As for RRIRVRPPRLPRPRPRPCFKPRP, the “shrunken log2 fold change” value is -0.243.

For RRIRCRPPRLPRPRPRPFCKPRP, the “shrunken log2 fold change” value is -0.0692. As for RRIRHRPPRLPRPRPRPVVVPRP, the “shrunken log2 fold change” value is -0.149.

Consider RRIRLRPPRLPRPRPRPKFWPRP, for which the “shrunken log2 fold change” value was 0.0752.

Regarding RRIRNRPPRLPRPRPRPDEAPRP, the “shrunken log2 fold change” value amounted to 0.27. In the case of RRIRWRPPRLPRPRPRPDMMPRP it was -0.0236. In the case of RRIRWRPPRLPRPRPRPWMGPRP it was 0.0275; in that of RRIRARPPRLPRPRPRPYWWPRP, -0.195; in that of RRIRFRPPRLPRPRPRPETTPRP, 0.533. For RRIRDRPPRLPRPRPRPWKVPRP, the “shrunken log2 fold change” value was -0.0565.

In the case of RRIRQRPPRLPRPRPRPIGPPRP, the “shrunken log2 fold change” value is 0.229. In the case of RRIRKRPPRLPRPRPRPVQPPRP it was 0.0838. In the case of RRIRARPPRLPRPRPRPHRAPRP, the “shrunken log2 fold change” value was 0.216. In the case of RRIRSRPPRLPRPRPRPTIMPRP it was -0.508. As to RRIRERPPRLPRPRPRPEYFPRP, the “shrunken log2 fold change” value is -0.0105. In the case of RRIRKRPPRLPRPRPRPVKNPRP it was 0.00783; in that of RRIRRRPPRLPRPRPRPNQLPRP, -0.178.

As for RRIRARPPRLPRPRPRPFTDPRP, the “shrunken log2 fold change” value turned out to be 0.128. Next, RRIRDRPPRLPRPRPRPFETPRP: -0.0134; RRIRPRPPRLPRPRPRPTTNPRP: 0.199; RRIRLRPPRLPRPRPRPNSHPRP: -0.404. As for RRIRVRPPRLPRPRPRPSKWPRP, the “shrunken log2 fold change” value was -0.283. In the case of RRIRHRPPRLPRPRPRPNEWPRP it was -0.0925; in that of RRIRQRPPRLPRPRPRPCENPRP, 0.0237; in that of RRIRPRPPRLPRPRPRPTWQPRP, 0.543. Regarding RRIRKRPPRLPRPRPRPHDLPRP, the “shrunken log2 fold change” value was determined as 0.00698.

As to RRIRDRPPRLPRPRPRPLPNPRP, the “shrunken log2 fold change” value is -0.234.

In the case of RRIRHRPPRLPRPRPRPHNDPRP, the “shrunken log2 fold change” value was -0.329. In the case of RRIRYRPPRLPRPRPRPCRAPRP it was -0.459; in that of RRIRNRPPRLPRPRPRPFCSPRP, -0.0765; in that of RRIRHRPPRLPRPRPRPEVLPRP, -0.0421. In the case of RRIRERPPRLPRPRPRPRTSPRP, the “shrunken log2 fold change” value was determined as 0.0838. Turning to RRIRMRPPRLPRPRPRPCHDPRP, the “shrunken log2 fold change” value was -0.347. In the case of RRIRRRPPRLPRPRPRPHDAPRP, the “shrunken log2 fold change” value is 0.197. Take RRIRQRPPRLPRPRPRPRFSPRP: the “shrunken log2 fold change” value came out at 0.0453. Next, RRIRVRPPRLPRPRPRPYMNPRP: -0.962. Turning to RRIRCRPPRLPRPRPRPCHRPRP, the “shrunken log2 fold change” value was -0.371. In the case of RRIRWRPPRLPRPRPRPPQCPRP it was 0.292.
